Assay results taken from the DeepSol protein solubility set.

Assay: soluble on expression in E. coli; label from the status in PepcDB or PDB records

Soluble on expression in E. coli, not soluble:
MGSDKIHHHHHHMNQSNCIVAQSGGPTVAINASLAGVIAGVKSSEKYDICYGAVNGILGILNENYLNLSDIFADDANLEKLKTTPAMYLGSCRHKLPDYKDDDSPYVYIFHQFDKLSIKAFFYIGGNDSMDTVLKLSDYAKKINSDVKIIGIPKTIDNDLCMTDHTPGFGSAAKYIASSMLEIAHDTFIYAVKSVTIVEIMGRDAGWLTAASALARNEYNTAPQFIYLPEVNFDKDKFVADIKEALAHTNNVIVAVSEGIHDADGSYITSSKAACDQFGHQQLSGAGKALEFIVKENIGVKVRSVEVNVLQRCASHLASLTDIEESFAQGKKGVTIAAEGVTASMVCLKRISNKPYQVEYTYSAIKDIANEAKSVPREWINDAGNDVKPELIEYLKPLIQGETAVAYKNGLPDYMDVSHLHKCN
MGSDKIHHHHHHMSHDTVSPGLSLREIRAILAVAEQRGFSSAARRLNISQSSLSRTIHRAESVLAIRLFQRGWGGAEPTPEGEIVRQHCTQVMAELLHERDALMAAGLTRLPLPLDLRWRDLACVAAVVHTGKTTTAAKWLRTSQSSVSRTLGAISVRLGSPLFQRSGEGLRAEPLAERLVALRDRMCARMQPLQERLGHLAGEVTGRLAVGMTPFCEQERVAQAFGDLLVAYPQLRLSAVTGSYVMLTDALRCGEIDLVVGLLRELGEDDELAELPLAEEAITVLARSDHPCAVRSVSMEDLARQTWIVAPAGTPIRAYFERLFLGMGKTPPVQTCEIVTFHLAESMVRESQSLALLLYSPRKVRELPPGLVRVPVTLPDNRRHIGVTYRRDAGLSFTQRQFIDGLAKRFASDDDAEGNAP
MTTPSPQEISTVTLNSLSKEERKKAILALQTKKNEIKLVIDEHQKKLAEFRQSIPDGCCEMFENEKKIRLKHSSTAELLPHLQKVGSSSVDKEKMINNIRQRVEVQVADQETFKSIEERNELLRRENENLKKEVNTVAAELLQEFESYE
MLKRTPLFPVYARYGAKTIEFGGWEMPVQFSSIKEEHEAVRTRAGLFDVSHMGEIVVRGRGSLAFLQKLMTNDVAKLRPGRAQYTLMCYEDGGTVDDLLIYQKGENDYLLVVNAANTEKDFAWLSGHVEGDVELQDVSSETAQLALQGPAAERVLQRLTDFDLAALRPFSFADGVEVSGVKALVSRTGYTGEDGFELYCKAEDAAALWEAILAAGARDGVLPCGLGARDTLRFEACLPLYGQELSDSISPVEAGLGFAVKTEKEPPFIGQAVLKRQKEEGPPRRLVGIEMIDRGIPRHGYLVFADGEEVGFVTTGTQSPTLKKNIGLALVKADVAAIGREVEVDIRGKRLKANIVPIPFYRRAK
MGSDKIHHHHHHMVQLIKKYEDLLCLLDELIKNESTFRWDEFYLERERDVPFFVLAPDEQLVEYVCTGLIESGKVLELGCGPGRNAIYLAENHFEVDVVDLSQKAIDWAMDRANERKASIRFIRENIFNLNVNKASYDLVYDSGCFHHIPPHRRMDYIHLVTTALKPGGHFGLTCFIENGPLGGAAISDLDVYRQQSLQGGLGFTEQKLIQIFDDFAVIEIRKMKEYPNDSSRFGVNGLLTALFQKKKVEKVK
MSPEDAITRAELLRRREAGEVTLVDVRPHEEYQAGHIPGAINIPIAELADRLAELAGDRDIVAYCRGAYCVMAPDAVRIARDAGREVKRLDDGMLEWRLAGLPVDEGALEHHHHHH
MAHHHHHHMHVQARYQRITEAYAVLSDPEKRRAYDAKHGVNFQSRLARLQTVIGHHNTMATQRSTTSCKTACLASTSSPTTDEHDAQHLHAASHKDSAERTVGDDDDEDYDPNDVLAPPRGAPHQGRSSDFYSDDSRDAHGEGDYIARLFSLHLRVGAEAAPKTRNGVPVVQYQAITLTRAYSPPESPYARTWGLVFKKNELVDLDGENLEELARITGLAAVPFPSVVQQINYTMAGTDDRLAAPAISALRIRVHTGLSGEPCHGPNGVDQY
MGSDKIHHHHHHMFLAGAFIAVGSLYAQSSDAEWQAGVAKLKETIQTNPAQANEEAEQLIKGKNKKNVELLVAIGEVYLKAGKLPEAQEYAALAKKVNGKSALASVLEGDIAFEQKNAGLASQKYEEAIYFDPSCTEAYLRYADIYKSANAALAIEKLEQLKAQEPSNTAVDKKLAEIYYLKNDFSKAAEAYSRFAMGPTATEEDLVKYAFALFLNHDFEKSLEVANMGLKKNARHAAFNRLAMYNYTDLKRFDEAIKAADAFFTESDKADYSYLDYMYYGHLLEALKKYDEAVGQYEKAIQLDPTKTDLYKNISSAYEQKNDYKKAISAYQKYYTSLDKEHQTPDLQFQFGRLYYGAGTQTDSLTINAEERKQALMAADSVFHSIAEAAPDSYLGNFWRARANSALDPETTLGLAKPFYEEVATLLESKNDPHYNSALIECYSYLGYYYLLAIENPALKAEAMANKEKSKEYWSKILAIDSTNATAKRALDGIK
MSLNKKVVIDDVAKLAGVSKATISRYLNGKFEYMSEKTKDRIKESIEELNYRPNNIARSLKSNKSKLIGVVIADLTNPFSSIIIKGIGDECKARGYNMVIANSDNDVKQEEEYIKSLLDQRVEGIIVNSTGYNEEFLLSIKERGIPVSMVDRTFCEDKVDSVKSNNYDITVETINYLIDAGFNSLCFFTERLDNIKPRIERERAFIDVCSKRLKKENYNISVVDYSKAGNLEVNIYKFLNNYSGKKAIFAVNGVVLLHTLSAINKLNINVPKDLGICGYDNWGWAALIPPGITTISQPSYEMGSEAAKLVLDRIEGKASLGAVCKTLSAKLEIRGSTIPLNEGHHHHHH
MGSDKIHHHHHHMPASDVIIAGSGPAGAMLARDLTRAGASVRILERGGETPASAPNLWKLWRRKEALHVAPGVALLRGTRVGGGSTVFYHTAISPPLEMFSHHGVEMAQDLAAVLAELPHQPLQAPLLGPTAQRIIDAARSLGLPWQTLPKMIDQELCGHGDCPPAAFWSAASLLAQAMQLGAELETGIQVNRVLFQNGRAVGVEALQKGQLRRFMGGTVILSAGGVASPVILQRSGIREAGRGFFCDPLRVGVAIGRGNGLQEAEMPMTAGFVDREAGYMLTDMTVPPNFYRAFAWAAGRVDMLAHYRHSMMIMVKIRDEISGEVNANGRVWRHFSAAEKNRMRNGMGLAADILRAAGGRRIFFSPWLAAHPGGSVRLGELLDERLSCCTPNLHVCDASVIPEPWGLPPTLTVLSLAKYLGRILLG
MSLGNYAKPIGTAPVTANPTDYSSALVCLNQYARTNRIVAPRIAIGRIADYTGKEESDGSGRKVTQGASLMAVSAFAKAGMPLVERFDTSVSEFELKYANNKLISDRPNPAPDAPADFRKILAGQVPGSDFYVIGGITELNYNIRSAGIDAYAGDKDTDGLKGNFRRRVFIMNIALDLRLVNTRTLEVVDVISYQKQVVGREVSAGVFDFLNGNLFDISAGRGALEPMQLAVRALIERATVEMAANLYGMPGPESCLRFDPFGDATVGQTGAFTPAYNNLGTNNAQTRDDPSRWNARRDPDIRDAKRGRYEGHHHHHH
MGSDKIHHHHHHMLNDRARILLKTLVERYISEGEPVGSRTLSKHAGLDLSPASIRNIMSDLEEMGFVASPHTSAGRVPTPRGYRFFVDTLLTVRPLDQVSVNHLENSLAASDPQRLMTAASTLLSDLSQFAGLVMTPRRNPAFRQIEFLTLSDKRVLLIIVTMEGEVENRVIVTEQSYSAAALTEAANYFNQNFAGHSFDHVRSKLRDELGRMRDDITRLMAAAVDAGTQALDASQDNVVVSGSRKLLDVEELSSNMRSLRRLFDAFEKKTGLLQLLDQSRSAAGVQIFIGGESELLPLDECSLVTAPYSVDGVVVGTLGVVGPTRMAYERVVPIVDVTAKILSSALSQHK

Soluble on expression in E. coli, soluble:
MSLREYIKEGIKLAVTNIPEDVVSAIREALEREESKIAKYNLEMILKAIDISRKEGIPVCQDTGTPIFFVRTNGPINKIYDEIVKGVEIATREVPLRPNALHVLDGKVIGNVPEVHFEPGKETLISILMKGGGSENCTALFPLTPAEGLEGVKNKVIEHVQSCGGKPCPPIIVGIGIASPAEKAIILAKKALLRRISERHPNEKLAKFERELLEEINSLGIGPMGLGGRTTALDVKVEVETRHPASYIVGVVIQCWAHRRAFIKVSEGGVKIWQEGGSHHHHHH
MQNSALKAWLDSSYLSGANQSWIEQLYEDFLTDPDSVDANWRSTFQQLPGTGVKPDQFHSQTREYFRRLAKDASRYSSTISDPDTNVKQVKVLQLINAYRFRGHQHANLDPLGLWQQDKVADLDPSFHDLTEADFQETFNVGSFASGKETMKLGELLEALKQTYCGPIGAEYMHITSTEEKRWIQQRIESGRATFNSEEKKRFLSELTAAEGLERYLGAKFPGAKRFSLEGGDALIPMLKEMIRHAGNSGTREVVLGMAHRGRLNVLVNVLGKKPQDLFDEFAGKHKEHLGTGDVKYHMGFSSDFQTDGGLVHLALAFNPSHLEIVSPVVIGSVRARLDRLDEPSSNKVLPITIHGDAAVTGQGVVQETLNMSKARGYEVGGTVRIVINNQVGFTTSNPLDARSTPYCTDIGKMVQAPIFHVNADDPEAVAFVTRLALDFRNTFKRDVFIDLVCYRRHGHNEADEPSATQPLMYQKIKKHPTPRKIYADKLEQEKVATLEDATEMVNLYRDALDAGDCVVAEWRPMNMHSFTWSPYLNHEWDEEYPNKVEMKRLQELAKRISTVPEAVEMQSRVAKIYADRQAMAAGEKLFDWGGAENLAYATLVDEGIPVRLSGEDSGRGTFFHRHAVIHNQSNGSTYTPLQHIHNGQGAFRVWDSVLSEEAVLAFEYGYATAEPRTLTIWEAQFGDFANGAQVVIDQFISSGEQKWGRMCGLVMLLPHGYEGQGPEHSSARLERYLQLCAEQNMQVCVPSTPAQVYHMLRRQALRGMRRPLVVMSPKSLLRHPLAVSSLEELANGTFLPAIGEIDELDPKGVKRVVMCSGKVYYDLLEQRRKNNQHDVAIVRIEQLYPFPHKAMQEVLQQFAHVKDFVWCQEEPLNQGAWYCSQHHFREVIPFGASLRYAGRPASASPAVGYMSVHQKQQQDLVNDALNVE
MSLEYKYELTIDKLLQSGVSSNPDQIINYTGKREFTFKDFSKRVNTLAKALISIGVKKGDRVAVIDWDTYVYLEAYFAVPMVDAVLHTVNVRYPQDLIYYTMDHAEDKYVIVRDEFVPILSKNREAFYFIKGWIVYSETGQIPDSLSPKYVYDDLMKESYSDIELPQLSENDLATTFYTSGTTGIPKGVQFTHRQIVLHSISSGLALADDPINLTSRDVIMPLVPMFHVHAWGVPYMSIMSGRRYVLPGRYDFDHIIDLIDKYNVSVIAMVPSILYLIVTNPNVKKIAGRGIKAIVGGGALPEGLANAAEKLGITAISGYGLSETAPILTLATYNERVKAMPESEKKKFRLKTGIPIPLVQLRVVDDKMNDVPKDEKTIGEIVVRAPWLTSVYVKNKEGTEALWRGDWMHTGDLAVMDEYGYIRIVDREKDAVKSGGEFIPSLVLEDAISSCSGVVENAVVGRPDEKWGERPVAFYTGTAKPDEIRKHLIEMVNAGRIAKFWIPDDFINIKEFAKTSTGKIDKKVLREMIKKEGHHHHHH
MLKVESISKDYREFKLREISFDVREGEHFIILGPSGSGKTVLLEIIAGIISPDRGRILLRGEDITGLPPEKRNFSYIPQNYALFPHMTVFDNIAFGLKLRKIPRKEVARKVREVAESLGIDHLLHRKPRTLSGGEQQRVAIARALVVKPELLLMDEPFANLDVQTKSKLIREMKRWRKEFGFTAIHVTHSFEEALSLGDRVGIMLRGRLVQVGDVRDVFSKPKSEEVARFLGFENIIEGVANGRILKVGDLRIELPREVWGKVRVGIRPEDITIFMEGVKTSARNVFKARVEGIEDLGALVKLTLNLGGIILRAFITRSSLIELGIREGEEVYASFKASAIHVFP
MSLGYGIRLLVWGEFACFTRPEMKVERVSYDVMTPSAARGILESIHWKPSIVWKIDKIHVLNEIRFDNVRRNEVGSKIPTGNVRKAMKGEPTLLCQYASEDRQQRATLLLRNVAYVIVAHFEMTSKAGPQDSPEKHYAIFSRRARQGQCFQQPYFGCREFPAKFRLIEEDEPTPHSLHKGDKDLGWMLLDIDHEDGMNPRFFRATMKDGLIEVPPMERGLTVLEGHHHHHH
